PMC7430649

System: Bad (bacterial DNA2-like helicase-nuclease), wild type (Geobacillus stearothermophilus 10 (DSM 13240))
Test: ATPase stimulation titration
Details: saturating ATP; Buffers of the ATPase and tweezers assays not given in the material; tweezers at room temperature, low free Mg2+; helicase assays 20 mM Tris-HCl pH 7.5, 2 mM …

CAAGCGGGCGCCTCCCG [ODN1 (17mer ssDNA)] was tested, and the K half (uM nucleotides) was 1.6.
